Laboratory results from the supplement of paper PMC10567573.

B1: ZNF8 (parent)
chain: RIHTGERPYMCKECGKAFSQNSSL

Variants of: B1
Experiment: protein stability index of a GFP-peptide fusion (GPS, HEK-293T) (PSI 1-6); higher = more stable
Settings: c terminus: a fixed tail appended
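Note: lentivirally expressed fusions sorted by FACS into six bins by GFP to DsRed ratio, PSI derived from sequencing read proportions per bin multiplied by bin number.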

Protein stability index of substitutions, site by site:
R7: M 2.77; L 2.65; K 2.35; W 2.9; D 3.36; C 3.77; I 2.6; T 4; P 2.44; N 3.38; A 2.6; V 2.37; G 3.23; H 3.36; F 2.99; Q 3.2; Y 2.39; E 3.85; S 2.53
M10: G 2.7; C 3.11; T 3.03; A 2.64; Y 2.24; Q 3.16; D 2.84; E 3.1; V 2.24; N 2.12; R 1.95; S 2.26; K 1.75; H 2.52; W 2.3; F 2.31; L 2.74; I 2.69; P 2.62
E6: G 1.5; A 1.91; C 1.68; Y 1.88; R 1.71; F 2.44; D 2.28; N 2.24; I 1.68; L 2; H 2.36; S 1.33; Q 2.2; P 2.34; K 2.35; T 2.36; V 1.98; W 2.27; M 2.7
C11: W 1.98; M 2.82; N 2.81; G 3.28; H 2.75; R 2.67; D 2.78; F 2.36; E 3.42; A 2.73; V 2.72; P 2.84; L 2.68; S 2.99; Q 3.04; K 3.08; T 2.48; I 2.19
T4: D 2.74; C 3.04; A 2.21; N 2.91; G 2.19; Q 3.24; P 3.3; V 2.59; K 2.03; I 2.68; H 2.43; W 1.89; S 2.81; L 2.16; M 1.88; Y 2.1; E 3.16; F 2.42; R 2.04
H3: Q 2.47; T 2.8; E 3.1; S 2.38; K 2.46; R 1.96; W 2.05; V 2.05; L 2.25; G 3.12; M 2.49; F 1.9; I 2.74; P 2.38; N 2.81; Y 2.33
P8: E 3.22; M 2.98; S 2.44; Q 2.99; W 2.19; H 2.12; D 3.23; V 2.67; L 2.34; T 2.96; F 2.28; C 2.31; N 2.04; A 2.75; G 2.53; I 2.43; Y 2.62; R 2.85; K 2.03
Y9: N 2.7; L 2.43; F 3.21; H 2.86; M 2.6; S 2.2; T 2.42; K 1.83; C 4.27; P 2.48; A 3.88; D 3.29; R 2.02; I 2.21; W 2.19; Q 2.75; V 2.71; E 3.27; G 3.21
G5: I 1.83; H 2.63; V 2.04; E 3.37; T 2.31; A 2.98; F 2.09; S 2.53; W 2.49; Y 2.73; D 2.64; L 2.01; R 2.13; M 2.62; Q 2.47; N 2.44; K 2.5; P 3.02; C 3.78
